In paper PMC11417369, “DNA sequence and chromatin differentiate sequence-specific transcription factor binding in the human malaria parasite Plasmodium falciparum” one finds binding signal data, which are given here for 30 molecules.

Numbering of substitutions follows the chain as printed.

In the data set the target is T1, AP2-HC D1 (Plasmodium falciparum, UniProt Q8IKR9 1316-1374).
T1 sequence: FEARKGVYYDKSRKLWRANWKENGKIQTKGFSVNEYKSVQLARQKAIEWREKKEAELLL
As to the kind of experiment: gcPBM; about 25 ug protein; PBS, 1% milk, 0.2 mg/ml BSA, salmon testes DNA, 0.03% Triton X-100. Conditions: tags: N-terminal GST (pGEX-4T-1), kept; label: surface-attached array probe.

B1: CACACA_negctrl_site828 (dsDNA)
DNA 1: ATATATATATATGTTTATTTATTTGAACGATTGTGG
DNA 2: CCACAATCGTTCAAATAAATAAACATATATATATAT
Consider B1, for which the binding signal is 9.44 ln median PBM intensity, better of two orientations.

B2: CACACA_negctrl_site485 (dsDNA)
DNA 1: AAAGTGGCCATATATTTTTTTTTTTTTTTCCTTATT
DNA 2: AATAAGGAAAAAAAAAAAAAAATATATGGCCACTTT
As for B2, the binding signal was 9.44 ln median PBM intensity, better of two orientations.

B3: CACACA_negctrl_site1132 (dsDNA)
DNA 1: ATGTAATCATTTTCGACTTTTTTTTTTTTTTTTTTT
DNA 2: AAAAAAAAAAAAAAAAAAAGTCGAAAATGATTACAT
As for B3, the binding signal is 9.38 ln median PBM intensity, better of two orientations.

B4: CACACA_negctrl_site869 (dsDNA)
DNA 1: TTCTTACACAAAAAAATGAAATCAATCAAAAAAAAA
DNA 2: TTTTTTTTTGATTGATTTCATTTTTTTGTGTAAGAA
Regarding B4, the binding signal was 9.37 ln median PBM intensity, better of two orientations.

B5: CACACA_negctrl_site313 (dsDNA)
DNA 1: ATAAACAAACATAAATCTGATTTTAATTTTTTTAAG
DNA 2: CTTAAAAAAATTAAAATCAGATTTATGTTTGTTTAT
With B5, the binding signal is 9.42 ln median PBM intensity, better of two orientations.

B6: CACACA_negctrl_site577 (dsDNA)
DNA 1: TCATATTATAAATAAATAAATAAATATATATATATA
DNA 2: TATATATATATATTTATTTATTTATTTATAATATGA
In the case of B6, the binding signal was 9.41 ln median PBM intensity, better of two orientations.

B7: CACACA_negctrl_site147 (dsDNA)
DNA 1: GATTACCTTTTTTTTTTTTTTTTTTTTTTTTTTTTC
DNA 2: GAAAAAAAAAAAAAAAAAAAAAAAAAAAAGGTAATC
As for B7, the binding signal was 9.37 ln median PBM intensity, better of two orientations.

B8: CACACA_negctrl_site1800 (dsDNA)
DNA 1: TTTTAACGTAATTCAAATGAGCAGAATTTTTTAAAA
DNA 2: TTTTAAAAAATTCTGCTCATTTGAATTACGTTAAAA
Turning to B8, the binding signal was 9.36 ln median PBM intensity, better of two orientations.

B9: CACACA_negctrl_site758 (dsDNA)
DNA 1: TTTTAAAAAATAAAATATTATTGAAGTAAAATATGA
DNA 2: TCATATTTTACTTCAATAATATTTTATTTTTTAAAA
For B9, the binding signal is 9.36 ln median PBM intensity, better of two orientations.

B10: CACACA_negctrl_site401 (dsDNA)
DNA 1: TGTTAATATATCATTATGTTATAGGTTCAGCTGGGA
DNA 2: TCCCAGCTGAACCTATAACATAATGATATATTAACA
With B10, the binding signal was 9.41 ln median PBM intensity, better of two orientations.

B11: CACACA_negctrl_site1361 (dsDNA)
DNA 1: TTAAAATTCAAAAAAAAAAATCAGAATATCAGAAAA
DNA 2: TTTTCTGATATTCTGATTTTTTTTTTTGAATTTTAA
In the case of B11, the binding signal was 9.36 ln median PBM intensity, better of two orientations.

B12: CACACA_negctrl_site437 (dsDNA)
DNA 1: ATTATATTAATATATATATATATATATATAATAATA
DNA 2: TATTATTATATATATATATATATATATTAATATAAT
As for B12, the binding signal is 9.4 ln median PBM intensity, better of two orientations.

B13: CACACA_negctrl_site1109 (dsDNA)
DNA 1: TATATATCTGTGAAAATACTTAAATTGTTATAAAAA
DNA 2: TTTTTATAACAATTTAAGTATTTTCACAGATATATA
With B13, the binding signal is 9.44 ln median PBM intensity, better of two orientations.

B14: CACACA_negctrl_site1459 (dsDNA)
DNA 1: AAAAATATATATATATTTCTTCTTTGTTAAAATGTA
DNA 2: TACATTTTAACAAAGAAGAAATATATATATATTTTT
Consider B14, for which the binding signal is 9.42 ln median PBM intensity, better of two orientations.

B15: CACACA_negctrl_site386 (dsDNA)
DNA 1: TCTTACAAGGAACTAATAAAATTGTAGTTTGTATTT
DNA 2: AAATACAAACTACAATTTTATTAGTTCCTTGTAAGA
B15: the binding signal was 9.42 ln median PBM intensity, better of two orientations.

B16: CACACA_negctrl_site1488 (dsDNA)
DNA 1: AATTCTTTTTATATATTAAATATTATTAATAAGTCA
DNA 2: TGACTTATTAATAATATTTAATATATAAAAAGAATT
With B16, the binding signal is 9.39 ln median PBM intensity, better of two orientations.

B17: CACACA_negctrl_site1085 (dsDNA)
DNA 1: TATATTCAAAAAAATTCATTTCTGATTTTTTTTTTT
DNA 2: AAAAAAAAAAATCAGAAATGAATTTTTTTGAATATA
For the molecule B17, the binding signal is 9.44 ln median PBM intensity, better of two orientations.

B18: CACACA_negctrl_site481 (dsDNA)
DNA 1: TGACTTTTTTTTTTTTTTTTTTTTTTTTATCTTTTT
DNA 2: AAAAAGATAAAAAAAAAAAAAAAAAAAAAAAAGTCA
As for B18, the binding signal is 9.43 ln median PBM intensity, better of two orientations.

B19: CACACA_negctrl_site788 (dsDNA)
DNA 1: GTATATATCTAAAAATATATATATATATATATATAT
DNA 2: ATATATATATATATATATATATTTTTAGATATATAC
As for B19, the binding signal was 9.43 ln median PBM intensity, better of two orientations.

B20: CACACA_negctrl_site966 (dsDNA)
DNA 1: TATTTGTTTGAATTTTTTTTTTTTTTTTTTTATGTG
DNA 2: CACATAAAAAAAAAAAAAAAAAAATTCAAACAAATA
Regarding B20, the binding signal is 9.38 ln median PBM intensity, better of two orientations.

B21: CACACA_negctrl_site1766 (dsDNA)
DNA 1: ACACATATATATATATATATATATATATATATATAT
DNA 2: B21 DNA 1 with C2T, C4T, A33G, A35G
Turning to B21, the binding signal was 9.45 ln median PBM intensity, better of two orientations.

B22: CACACA_negctrl_site1371 (dsDNA)
DNA 1: ATAATTAGTTCAATTTTTTTTTTTTTTTTTTTTTTT
DNA 2: AAAAAAAAAAAAAAAAAAAAAAATTGAACTAATTAT
On to B22, for which the binding signal is 9.38 ln median PBM intensity, better of two orientations.

B23: CACACA_negctrl_site279 (dsDNA)
DNA 1: TGTTTTTGTGATCATATGAAAAAATTACCTACAAGG
DNA 2: CCTTGTAGGTAATTTTTTCATATGATCACAAAAACA
With B23, the binding signal was 9.38 ln median PBM intensity, better of two orientations.

B24: CACACA_negctrl_site1802 (dsDNA)
DNA 1: TTATAATAAATATTTATTATATATAATATATATTAC
DNA 2: GTAATATATATTATATATAATAAATATTTATTATAA
Regarding B24, the binding signal was 9.39 ln median PBM intensity, better of two orientations.

B25: CACACA_negctrl_site1204 (dsDNA)
DNA 1: ATTTTTTTTTTTTTTTTTCATTTTTTTTTTTTTTTT
DNA 2: AAAAAAAAAAAAAAAATGAAAAAAAAAAAAAAAAAT
Consider B25, for which the binding signal is 9.43 ln median PBM intensity, better of two orientations.

B26: CACACA_negctrl_site1773 (dsDNA)
DNA 1: TGGTTATTTATCTTTATTATAAATATTTACAAATAA
DNA 2: TTATTTGTAAATATTTATAATAAAGATAAATAACCA
On to B26, for which the binding signal was 9.44 ln median PBM intensity, better of two orientations.

B27: CACACA_negctrl_site1094 (dsDNA)
DNA 1: TTTTATTGTTTTTTTTTTTTTTCTTTTTTTTTTTTT
DNA 2: AAAAAAAAAAAAAGAAAAAAAAAAAAAACAATAAAA
With B27, the binding signal is 9.39 ln median PBM intensity, better of two orientations.

B28: CACACA_negctrl_site1687 (dsDNA)
DNA 1: TATTGATAATTTTATATATACATACATAAATAAATA
DNA 2: TATTTATTTATGTATGTATATATAAAATTATCAATA
B28: the binding signal was 9.44 ln median PBM intensity, better of two orientations.

B29: CACACA_negctrl_site1471 (dsDNA)
DNA 1: TGGATTTTTTGATTTTTGTTTTTCTTCTTTCCCCCC
DNA 2: GGGGGGAAAGAAGAAAAACAAAAATCAAAAAATCCA
On to B29, for which the binding signal is 9.4 ln median PBM intensity, better of two orientations.

B30: CACACA_negctrl_site76 (dsDNA)
DNA 1: TAAATGTGAAATTTTATATTTTATATAATATACAAT
DNA 2: ATTGTATATTATATAAAATATAAAATTTCACATTTA
B30: the binding signal was 9.39 ln median PBM intensity, better of two orientations.
